Data reported in patent US20090203140.

Columns and labels:
Test in all cases: cell_activity
ZFN 12805 golden = conditions: pair 04.05 (with 12804), 5 ng mRNA
ZFN 12806 golden = conditions: pair 04.06 (with 12804), 5 ng mRNA
ZFN 12776 golden = conditions: pair 75.76 (with 12775), 7 ng mRNA, golden b1 heterozygous embryos
ZFN 13370 notail = conditions: pair ntl_68 (inferred with 13368), 5 ng mRNA; 16% in pair ntl_78
ZFN 12775 golden = conditions: pair 75.76 (with 12776), 7 ng mRNA, golden b1 heterozygous embryos
ZFN 13368 notail = conditions: pair ntl_68 (inferred 13368 with 13370), 5 ng mRNA, ntl b195 het x wildtype cross
ZFN 12804 golden = conditions: pair 04.05 (with 12805), 5 ng mRNA; also 32% in pair 04.06

ACCGTCTGGATGAACCACGGCAGGCCCA (double strand) [golden 12805 target]
activity (% embryos with unpigmented eye clones) (ZFN 12805 golden): 32

ACCGTCTGGATGAACCACGGCAGGCCCA (double strand) [golden 12806 target]
activity (% embryos with unpigmented eye clones) (ZFN 12806 golden): 32

ATGCACAGCAGGTTATAGACAGCAGAAC (double strand) [golden 12776 target]
activity (% embryos with unpigmented eye clones) (ZFN 12776 golden): 23

GCATTAGGGTCGAGACCGGTGACACTGG (double strand) [no tail 13370 target]
activity (% no tail-like embryos) (ZFN 13370 notail): 27

GTGCAGCGTGCGGCCTGCTGTCCTCTGC (double strand) [golden 12775 target]
activity (% embryos with unpigmented eye clones) (ZFN 12775 golden): 23

TGTACTCGGTCCTGCTGGATTTTGTGGC (double strand) [no tail 13368 target]
activity (% no tail-like embryos) (ZFN 13368 notail): 27

TTGTTGACGTGGGCTCCCCGGTGGATGT (double strand) [golden 12804 target]
activity (% embryos with unpigmented eye clones) (ZFN 12804 golden): 32
